T1: rat GM-CSF (rat, UniProt P48750 18-144)
T1 sequence (looked up): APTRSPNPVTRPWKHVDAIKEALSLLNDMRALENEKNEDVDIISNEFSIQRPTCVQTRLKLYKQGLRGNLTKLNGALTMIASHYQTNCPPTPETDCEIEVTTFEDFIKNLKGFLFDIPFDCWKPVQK

T2: mouse GM-CSF (mouse, UniProt P01587 18-141)
T2 sequence (looked up): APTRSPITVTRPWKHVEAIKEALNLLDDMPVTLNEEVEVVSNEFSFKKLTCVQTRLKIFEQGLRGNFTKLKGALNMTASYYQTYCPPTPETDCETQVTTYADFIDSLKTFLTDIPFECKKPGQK

T3: FcγRIIa (UniProt P12318 34-317, limits assumed)
T3 construct: whole, on cells; also called FcgRIIa; Fcγ receptor IIa
T3 sequence (looked up): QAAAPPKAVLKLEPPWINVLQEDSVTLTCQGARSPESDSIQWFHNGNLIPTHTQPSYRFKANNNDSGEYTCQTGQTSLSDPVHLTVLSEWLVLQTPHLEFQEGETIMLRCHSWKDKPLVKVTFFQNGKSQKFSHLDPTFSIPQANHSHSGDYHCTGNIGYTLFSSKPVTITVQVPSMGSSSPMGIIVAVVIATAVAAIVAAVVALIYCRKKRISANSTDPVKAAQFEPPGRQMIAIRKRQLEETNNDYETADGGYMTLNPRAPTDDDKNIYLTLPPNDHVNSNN

T4: FcγRIIb (UniProt P31994 43-310, limits assumed)
T4 construct: whole, on cells; also called FcgRIIb; Fcγ receptor IIb
T4 sequence (looked up): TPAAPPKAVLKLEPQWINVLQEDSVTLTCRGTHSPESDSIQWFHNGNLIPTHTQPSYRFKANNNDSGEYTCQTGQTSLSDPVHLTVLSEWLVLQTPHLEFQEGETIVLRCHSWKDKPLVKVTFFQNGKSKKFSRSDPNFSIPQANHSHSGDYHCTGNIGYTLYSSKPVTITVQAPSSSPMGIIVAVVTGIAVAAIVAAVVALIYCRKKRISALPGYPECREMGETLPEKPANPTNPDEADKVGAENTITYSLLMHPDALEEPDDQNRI

B1: GCE536 (antibody, human IgG1, kappa, V domains shown)
VH: QLQLVQSGTEVKKPGASVKVSCKSSGYVFTSYYLVWVRQAPGQGLEWMATISPGDVNTSYEQRFQGRVTVTTDASTNTVDMELRSLRSEDTAVYYCARGPRSKPPYLYFALDVWGQGTAVTVSS
VL: EIVLTQSPGTLSLSPGETAILSCRASQSVSSSLLAWYQQKPGQAPRLLIYGASNRATGIRGRFSGSGSGTDFTLTISRLEPEDFVLYYCQHYGSRVTFGQGTKLEIKR
notes: also called GCE536 antibody
B2: Ts1GC1 trispecific antibody (antibody, human IgG1, kappa)
heavy: not shown
light: DIQMTQSPSTLSTSVGDRVTITCRASQNILNWLAWYQQKPGNAPNLLIYKASDLQSGVPSRFSGSGSGTEFTLTISSLQPDDFATYYCQHYNSYPLTFGGGTKVEIKRTVAAPSVFIFPPSDEQLKSGTASVVCLLNNFYPREAKVQWKVDNALQSGNSQESVTEQDSKDSTYSLSSTLTLSKADYEKHKVYACEVTHQGLSSPVTKSFNRGEC
notes: Trispecific hexavalent IgG1, construct type Ts1; specificities GCA21 + GCA7 + GCB59; also called TsGC1
B3: Namilumab (antibody, V domains shown)
VH: QVQLVQSGAEVKKPGASVKVSCKAFGYPFTDYLLHWVRQAPGQGLEWVGWLNPYSGDTNYAQKFQGRVTMTRDTSISTAYMELSRLRSDDTAVYYCTRTTLISVYFDYWGQGTMVTVSS
VL: DIQMTQSPSSVSASVGDRVTIACRASQNIRNILNWYQQRPGKAPQLLIYAASNLQSGVPSRFSGSGSGTDFTLTINSLQPEDFATYYCQQSYSMPRTFGGGTKLEIK
B4: GCB59 (antibody, IgG1, V domains shown)
VH: EVQLVESGGDLVKAGGSLRLSCAVSGLSFSSSGMNWVRQAPGKGLEWISSISGSQNYKYYADSVKGRFVVSRDNARNFLYLQMDSLRAEDTAVYFCVGGFPYWLPPSDFSGFHVWGQGTTVTVSS
VL: SYVLTQPPSVSVAPGQTASLTCGGTNIGSKSVHWYQQKAGQAPVLVVYADNDRPSGVPERFSGSNSGNTATLTISRVEAEDESDYFCQVWDGNTDHVVFGGGTKLTVLG
notes: also called GCB59 antibody
B5: GCA7 (antibody, human IgG1, kappa, V domains shown)
VH: GVQLVQSGGGLVQPGGSLRLSCAASGFTVSTNYMSWVRQAPGKGLEWVSILYAGGVTRYADSVKTRFTISRDNSKNTLFLQMNALSAEDTAIYYCAKHYDSGYSTIDHFDSWGQGTLVTVSS
VL: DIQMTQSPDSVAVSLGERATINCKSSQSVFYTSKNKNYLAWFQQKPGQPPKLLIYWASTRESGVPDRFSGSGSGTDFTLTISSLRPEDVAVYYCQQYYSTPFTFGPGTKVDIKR
notes: also called GCA7 antibody
B6: GCA21 (antibody, IgG1, V domains shown)
VH: QVQLMESGGGVVQPGRSLRLSCSAFGFTFSNYPMHWVRQAPGKGLEWVAIILPDGNRKNYGRSVTGRFTISRDNSNNSLYLQMNNLTTEDTAMYYCTRDGTYYSNGGVYQTYRRFFDFWGRGTLVTVSS
VL: DIQMTQSPSTLSTSVGDRVTITCRASQNILNWLAWYQQKPGNAPNLLIYKASDLQSGVPSRFSGSGSGTEFTLTISSLQPDDFATYYCQHYNSYPLTFGGGTKVEIKR
notes: also called GCA21 antibody

Legend:
[1] = target: T5, human GM-CSF (granulocyte macrophage-colony stimulating factor) (human, UniProt P04141 18-144); test: SPR (ProteOn), mAb captured on protein A, GM-CSF as analyte, Langmuir fit
T5 construct: Soluble cytokine used in ELISA, SPR, TF-1 bioassay and immune complex formation; also called recombinant GM-CSF
T5 sequence (P04141 18-144 limits assumed): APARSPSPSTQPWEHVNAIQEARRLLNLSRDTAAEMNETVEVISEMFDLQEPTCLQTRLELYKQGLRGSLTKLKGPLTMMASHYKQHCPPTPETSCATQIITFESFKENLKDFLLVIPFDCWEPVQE
Procedure: (§1) The kinetics of binding was determined by surface plasmon resonance (SPR). […] HEPES buffered saline (HBS) (10 mM HEPES, pH 7.4, 150 mM NaCl, 3 mM EDTA, 0.005% surfactant Tween-20) was used as running buffer. All injections were made at flow rate of 100 µl/min. […] Injection time and dissociation time were 120 s and 600 s, respectively. Each binding interaction of mAbs with GM-CSF was assessed using a ProteON XPR36 instrument (Biorad) and data processed with ProteOn Manager Software. Ka, Kd and KD were calculated applying the Langmuir fit model.

rat GM-CSF = target: T1, rat GM-CSF; test: ELISA
mouse GM-CSF = target: T2, mouse GM-CSF; test: ELISA
[2] = target: T5, human GM-CSF (granulocyte …); test: ELISA on human GM-CSF
Procedure: All antibodies were recombinantly produced as IgG1 by transient transfection of HEK 293 Freestyle Cells (Invitrogen) using polyethylenimine (PEI). The antibodies were then tested for binding to human GM-CSF by ELISA. […] The EC50 values (ng/ml) were determined by ELISA and calculated for every sample by nonlinear regression analysis using GraphPad Prism 5 software.

FcγRIIa [3] = target: T3, FcγRIIa; test: flow cytometry, TZM-bl FcγRIIa cells; average ratio of binding in presence and in absence of GM-CSF
Procedure: (§2) To address the engagement of Fcγ receptors, immune complexes formed between GM-CSF and multispecific antibodies were tested for their capacity to bind to TZM-b1 cells expressing FcγRIIa and FcγRIIb receptors. Multispecific antibodies were mixed with 0.05 μg/ml of GM-CSF, or staining buffer. Samples were incubated at 37° C. for 30 min to allow the formation of immune complexes and then cooled down to 4° C. before adding them to TZM-b1 cells for 30 minutes. Cells were washed twice and stained with anti-human IgG Fcγ fragment specific F(ab′)2 fragment. Samples were analyzed on BD FACSCanto (BD Biosciences) and median intensity fluorescence was analyzed and compared between samples.

[4] = target: T5, human GM-CSF (granulocyte …); test: ELISA on GM-CSF
FcγRIIb [5] = target: T4, FcγRIIb; test: flow cytometry, TZM-bl cells expressing FcγRIIb, immune complex with low GM-CSF
Procedure: (§3) Expression of specific FcγRs was assessed by staining TZM-b1 cells with FITC-conjugated anti-CD64 (anti-FcγRI), anti-CD32 (anti-FcγRIIa and anti-FcγRIIb) and anti-CD16 (anti-FcγRIIIa) antibodies (all from BD Pharmingen). Untrasfected and transfected TZM-b1 cells were washed with staining buffer (PBS with 10% Fetal Bovine Serum and 2 mM EDTA) and seeded in 96-well-plates at a density of 50,000 cells per well. […] The LALA versions of all antibodies and a mAb with a different specificity were included as controls. Samples were incubated at 37° C. for 30 min to allow the formation of immune complexes and then cooled down to 4° C. before adding them to TZM-b1 cells for 30 min. Cells were washed twice and stained with anti-human IgG Fcγ fragment specific F(ab′)2 fragment (Jackson ImmunoResearch). Samples were analyzed on BD FACSCanto (BD Biosciences) and median intensity fluorescence was analyzed and compared between samples.
as §2

FcγRIIb [6] = target: T4, FcγRIIb; test: flow cytometry, TZM-bl cells expressing FcγRIIb, immune complex with high GM-CSF
Procedure: as §3, §2

FcγRIIb [7] = target: T4, FcγRIIb; test: flow cytometry, TZM-bl FcγRIIb cells; average ratio of binding in presence and in absence of GM-CSF
Procedure: as §3, §2

[8] = target: T5, human GM-CSF (granulocyte …); test: cell-based or functional assay
FcγRIIa [9] = target: T3, FcγRIIa; test: flow cytometry, TZM-bl cells expressing FcγRIIa, immune complex with low GM-CSF
Procedure: as §3, §2

FcγRIIa [10] = target: T3, FcγRIIa; test: flow cytometry, TZM-bl cells expressing FcγRIIa, immune complex with high GM-CSF
Procedure: as §2

[11] = target: T5, human GM-CSF (granulocyte …); test: SPR; GM-CSF injected at 400, 200, 100, 50, 25 nM and buffer over Ts1GC1; 120 s association, 600 s dissociation
Procedure: as §1
All multispecific antibodies were tested for binding to GM-CSF by ELISA.

FcγRIIb [12] = target: T4, FcγRIIb; test: flow cytometry, TZM-bl cells expressing FcγRIIb, mAb alone (w/o GM-CSF)
Procedure: as §3, §2

FcγRIIa [13] = target: T3, FcγRIIa; test: flow cytometry, TZM-bl cells expressing FcγRIIa, mAb alone (w/o GM-CSF)
Procedure: as §3, §2

[14] = target: T5, human GM-CSF (granulocyte …); test: cell-based or functional assay; remark: listed apart in the source

Binder	Kd [1] [nM]	koff [1] [s⁻¹]	kon [1] [M⁻¹ s⁻¹]	binding result (rat GM-CSF)	binding result (mouse GM-CSF)	EC50 [2] [µg/mL]	IC90 less stringent conditions (50 pg/ml GM-CSF, 1,000 TF-1/well) [8] [µg/mL]	IC90 more stringent conditions (500 pg/ml GM-CSF, 1,000 TF-1/well) [8] [µg/mL]	IC90 stringent conditions (50 pg/ml GM-CSF, 10,000 TF-1/well) [8] [µg/mL]	IC90 very stringent conditions (500 pg/ml GM-CSF, 10,000 TF-1/well) [8] [µg/mL]	also measured
B1	0.18	0.00011	660000	no binding	no binding	0.0614	–	–	–	–	–
B2	–	–	–	–	–	–	0.000352	0.00296	0.000283	0.00281	Average RATIO FcgRIIa (FcγRIIa [3]): 3.18 ratio; EC50 [4]: 0.027 µg/mL; MFI (FcγRIIb [5]): 528000 MFI; MFI (FcγRIIb [6]): 1.23e+06 MFI; Average RATIO FcgRIIb (FcγRIIb [7]): 2.51 ratio; MFI (FcγRIIa [9]): 118000 MFI; MFI (FcγRIIa [10]): 216000 MFI; Kd [11]: 0.0875 nM; koff [11]: 3.46e-05 s⁻¹; kon [11]: 395000 M⁻¹ s⁻¹; MFI (FcγRIIb [12]): 350000 MFI; MFI (FcγRIIa [13]): 52400 MFI
B3	0.24	7.7e-05	310000	–	–	0.0753	0.177	1.97	0.798	19.8	fold greater concentration than Ts1GC2a, less stringent conditions [14]: 690 fold
B4	0.68	0.0012	1.7e+06	no binding	no binding	0.308	–	–	–	–	–
B5	0.38	6e-05	240000	no binding	no binding	0.187	–	–	–	–	–
B6	0.69	0.00065	950000	no binding	no binding	0.0594	–	–	–	–	–
